According to patent US20240392004A1 (IMMUNOWAKE, published 2024):

Assays:
human PD-1 = biological target: T1, human PD-1 (human, UniProt Q15116 25-167, limits assumed); test: PD-L1-Fc format, calibrated on PD-L1(wt)-Fc, method not stated
T1 construct: also called hPD-1

mouse PD-1 = biological target: T2, mouse PD-1 (mouse, UniProt Q02242 25-167, limits assumed); test: as above
T2 construct: also called mPD-1
T2 sequence (looked up): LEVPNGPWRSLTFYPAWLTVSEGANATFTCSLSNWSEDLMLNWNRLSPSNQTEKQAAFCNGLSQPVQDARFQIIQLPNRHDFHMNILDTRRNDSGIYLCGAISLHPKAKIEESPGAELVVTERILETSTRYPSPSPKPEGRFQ

T1 sequence (Q15116 25-167 limits assumed): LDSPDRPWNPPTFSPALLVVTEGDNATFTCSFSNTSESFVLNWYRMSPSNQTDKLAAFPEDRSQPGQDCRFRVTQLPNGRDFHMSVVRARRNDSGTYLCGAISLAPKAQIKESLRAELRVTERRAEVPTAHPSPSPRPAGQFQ

B1: PD-L1(mut7)-Fc, I54Q/E58M/R113T/M115L/S117A (Fc fusion)
chain 1: FTVTVPKDLYVVEYGSNMTIECKFPVEKQLDLAALQVYWMMEDKNIIQFVHGEEDLKVQHSSYRQRARLLKDQLSLGNAALQITDVKLQDAGVYTCLIAYGGADYKRITVKVNAPYNKINQRILVVDPVTSEHELTCQAEGYPKAEVIWTSSDHQVLSGKTTTTNSKREEKLFNVTSTLRINTTTNEIFYCTFRRLDPEENHTAELVIPELPLAHPPNERGGGGSGGGDKTHTCPPCPAPEDEGGPSVFLFPPKPKDTLMISRTPEVTCVVVDVSHEDPEVKFNWYVDGVEVHNAKTKPREEQYNSTYRVVSVLTVLHQDWLNGKEYKCKVSNKALPAPIEKTISKAKGQPREPQVYVYPPSREEMTKNQVSLTCLVKGFYPSDIAVEWESNGQPENNYKTTPPVLDEDGSFALVSKLTVDKSRWQQGNVFSCSVMHEALHNHYTQKSLSLSPGK
chain 2: FTVTVPKDLYVVEYGSNMTIECKFPVEKQLDLAALQVYWMMEDKNIIQFVHGEEDLKVQHSSYRQRARLLKDQLSLGNAALQITDVKLQDAGVYTCLIAYGGADYKRITVKVNAPYNKINQRILVVDPVTSEHELTCQAEGYPKAEVIWTSSDHQVLSGKTTTTNSKREEKLFNVTSTLRINTTTNEIFYCTFRRLDPEENHTAELVIPELPLAHPPNERGGGGSGGGDKTHTCPPCPAPEKKGGPSVFLFPPKPKDTLMISRTPEVTCVVVDVSHEDPEVKFNWYVDGVEVHNAKTKPREEQYNSTYRVVSVLTVLHQDWLNGKEYKCKVSNKALPAPIEKTISKAKGQPREPQVYVLPPSREEMTKNQVSLLCLVKGFYPSDIAVEWESNGQPENRYMTWPPVLDSDGSFFLYSKLTVDKSRWQQGNVFSCSVMHEALHNHYTQKSLSLSPGK
What does the source list for B1?
Kd (human PD-1): 98 nM; Kd (mouse PD-1): 110 nM

B2: PD-L1(mut3)-Fc, I54Q/R113T/M115L/S117A/G119K (Fc fusion)
chain 1: FTVTVPKDLYVVEYGSNMTIECKFPVEKQLDLAALQVYWEMEDKNIIQFVHGEEDLKVQHSSYRQRARLLKDQLSLGNAALQITDVKLQDAGVYTCLIAYKGADYKRITVKVNAPYNKINQRILVVDPVTSEHELTCQAEGYPKAEVIWTSSDHQVLSGKTTTTNSKREEKLFNVTSTLRINTTTNEIFYCTFRRLDPEENHTAELVIPELPLAHPPNERDKTHTCPPCPAPEDEGGPSVFLFPPKPKDTLMISRTPEVTCVVVDVSHEDPEVKFNWYVDGVEVHNAKTKPREEQYNSTYRVVSVLTVLHQDWLNGKEYKCKVSNKALPAPIEKTISKAKGQPREPQVYVYPPSREEMTKNQVSLTCLVKGFYPSDIAVEWESNGQPENNYKTTPPVLDEDGSFALVSKLTVDKSRWQQGNVFSCSVMHEALHNHYTQKSLSLSPGK
chain 2: FTVTVPKDLYVVEYGSNMTIECKFPVEKQLDLAALQVYWEMEDKNIIQFVHGEEDLKVQHSSYRQRARLLKDQLSLGNAALQITDVKLQDAGVYTCLIAYKGADYKRITVKVNAPYNKINQRILVVDPVTSEHELTCQAEGYPKAEVIWTSSDHQVLSGKTTTTNSKREEKLFNVTSTLRINTTTNEIFYCTFRRLDPEENHTAELVIPELPLAHPPNERDKTHTCPPCPAPEKKGGPSVFLFPPKPKDTLMISRTPEVTCVVVDVSHEDPEVKFNWYVDGVEVHNAKTKPREEQYNSTYRVVSVLTVLHQDWLNGKEYKCKVSNKALPAPIEKTISKAKGQPREPQVYVLPPSREEMTKNQVSLLCLVKGFYPSDIAVEWESNGQPENRYMTWPPVLDSDGSFFLYSKLTVDKSRWQQGNVFSCSVMHEALHNHYTQKSLSLSPGK
Which Kd (human PD-1) does the source give for B2 here?
The Kd was 910 nM.

And the Kd (mouse PD-1)?
Its Kd is 820 nM.

B3: PD-L1(mut4)-Fc, I54Q/E58M/M115L/S117A/G119K (Fc fusion)
chain 1: FTVTVPKDLYVVEYGSNMTIECKFPVEKQLDLAALQVYWMMEDKNIIQFVHGEEDLKVQHSSYRQRARLLKDQLSLGNAALQITDVKLQDAGVYRCLIAYKGADYKRITVKVNAPYNKINQRILVVDPVTSEHELTCQAEGYPKAEVIWTSSDHQVLSGKTTTTNSKREEKLFNVTSTLRINTTTNEIFYCTFRRLDPEENHTAELVIPELPLAHPPNERDKTHTCPPCPAPEDEGGPSVFLFPPKPKDTLMISRTPEVTCVVVDVSHEDPEVKFNWYVDGVEVHNAKTKPREEQYNSTYRVVSVLTVLHQDWLNGKEYKCKVSNKALPAPIEKTISKAKGQPREPQVYVYPPSREEMTKNQVSLTCLVKGFYPSDIAVEWESNGQPENNYKTTPPVLDEDGSFALVSKLTVDKSRWQQGNVFSCSVMHEALHNHYTQKSLSLSPGK
chain 2: FTVTVPKDLYVVEYGSNMTIECKFPVEKQLDLAALQVYWMMEDKNIIQFVHGEEDLKVQHSSYRQRARLLKDQLSLGNAALQITDVKLQDAGVYRCLIAYKGADYKRITVKVNAPYNKINQRILVVDPVTSEHELTCQAEGYPKAEVIWTSSDHQVLSGKTTTTNSKREEKLFNVTSTLRINTTTNEIFYCTFRRLDPEENHTAELVIPELPLAHPPNERDKTHTCPPCPAPEKKGGPSVFLFPPKPKDTLMISRTPEVTCVVVDVSHEDPEVKFNWYVDGVEVHNAKTKPREEQYNSTYRVVSVLTVLHQDWLNGKEYKCKVSNKALPAPIEKTISKAKGQPREPQVYVLPPSREEMTKNQVSLLCLVKGFYPSDIAVEWESNGQPENRYMTWPPVLDSDGSFFLYSKLTVDKSRWQQGNVFSCSVMHEALHNHYTQKSLSLSPGK
How did the Kd (human PD-1) turn out when B3 was run?
The Kd was 1090 nM.

And the Kd (mouse PD-1)?
The Kd was 980 nM.

B4: PD-L1(mut5)-Fc, I54Q/E58M/R113T/S117A/G119K (Fc fusion)
chain 1: FTVTVPKDLYVVEYGSNMTIECKFPVEKQLDLAALQVYWMMEDKNIIQFVHGEEDLKVQHSSYRQRARLLKDQLSLGNAALQITDVKLQDAGVYTCMIAYKGADYKRITVKVNAPYNKINQRILVVDPVTSEHELTCQAEGYPKAEVIWTSSDHQVLSGKTTTTNSKREEKLFNVTSTLRINTTTNEIFYCTFRRLDPEENHTAELVIPELPLAHPPNERDKTHTCPPCPAPEDEGGPSVFLFPPKPKDTLMISRTPEVTCVVVDVSHEDPEVKFNWYVDGVEVHNAKTKPREEQYNSTYRVVSVLTVLHQDWLNGKEYKCKVSNKALPAPIEKTISKAKGQPREPQVYVYPPSREEMTKNQVSLTCLVKGFYPSDIAVEWESNGQPENNYKTTPPVLDEDGSFALVSKLTVDKSRWQQGNVFSCSVMHEALHNHYTQKSLSLSPGK
chain 2: FTVTVPKDLYVVEYGSNMTIECKFPVEKQLDLAALQVYWMMEDKNIIQFVHGEEDLKVQHSSYRQRARLLKDQLSLGNAALQITDVKLQDAGVYTCMIAYKGADYKRITVKVNAPYNKINQRILVVDPVTSEHELTCQAEGYPKAEVIWTSSDHQVLSGKTTTTNSKREEKLFNVTSTLRINTTTNEIFYCTFRRLDPEENHTAELVIPELPLAHPPNERDKTHTCPPCPAPEKKGGPSVFLFPPKPKDTLMISRTPEVTCVVVDVSHEDPEVKFNWYVDGVEVHNAKTKPREEQYNSTYRVVSVLTVLHQDWLNGKEYKCKVSNKALPAPIEKTISKAKGQPREPQVYVLPPSREEMTKNQVSLLCLVKGFYPSDIAVEWESNGQPENRYMTWPPVLDSDGSFFLYSKLTVDKSRWQQGNVFSCSVMHEALHNHYTQKSLSLSPGK
B4 was tested. Which Kd (human PD-1) did it give?
Its Kd is 1200 nM.

What about the Kd (mouse PD-1) of the same binder?
The Kd was 1100 nM.

B5: PD-L1(mut6)-Fc, I54Q/E58M/R113T/M115L/G119K (Fc fusion)
chain 1: FTVTVPKDLYVVEYGSNMTIECKFPVEKQLDLAALQVYWMMEDKNIIQFVHGEEDLKVQHSSYRQRARLLKDQLSLGNAALQITDVKLQDAGVYTCLISYKGADYKRITVKVNAPYNKINQRILVVDPVTSEHELTCQAEGYPKAEVIWTSSDHQVLSGKTTTTNSKREEKLFNVTSTLRINTTTNEIFYCTFRRLDPEENHTAELVIPELPLAHPPNERDKTHTCPPCPAPEDEGGPSVFLFPPKPKDTLMISRTPEVTCVVVDVSHEDPEVKFNWYVDGVEVHNAKTKPREEQYNSTYRVVSVLTVLHQDWLNGKEYKCKVSNKALPAPIEKTISKAKGQPREPQVYVYPPSREEMTKNQVSLTCLVKGFYPSDIAVEWESNGQPENNYKTTPPVLDEDGSFALVSKLTVDKSRWQQGNVFSCSVMHEALHNHYTQKSLSLSPGK
chain 2: FTVTVPKDLYVVEYGSNMTIECKFPVEKQLDLAALQVYWMMEDKNIIQFVHGEEDLKVQHSSYRQRARLLKDQLSLGNAALQITDVKLQDAGVYTCLISYKGADYKRITVKVNAPYNKINQRILVVDPVTSEHELTCQAEGYPKAEVIWTSSDHQVLSGKTTTTNSKREEKLFNVTSTLRINTTTNEIFYCTFRRLDPEENHTAELVIPELPLAHPPNERDKTHTCPPCPAPEKKGGPSVFLFPPKPKDTLMISRTPEVTCVVVDVSHEDPEVKFNWYVDGVEVHNAKTKPREEQYNSTYRVVSVLTVLHQDWLNGKEYKCKVSNKALPAPIEKTISKAKGQPREPQVYVLPPSREEMTKNQVSLLCLVKGFYPSDIAVEWESNGQPENRYMTWPPVLDSDGSFFLYSKLTVDKSRWQQGNVFSCSVMHEALHNHYTQKSLSLSPGK
B5 was tested. Which Kd (human PD-1) did it give?
The Kd was 555 nM.

What about the Kd (mouse PD-1) of the same binder?
Its Kd is 420 nM.
